Experimental data from patent US20240270846A1 (published 2024).
Changes are numbered by the printed parent chain. Names and notes keep the numbering of the source.

B1: CE115HA000 N82aD one-arm antibody (antibody, human IgG1, kappa, L234A L235A, N297A, name in Kabat numbering)
heavy: QVQLVESGGGVVQPGRSLRLSCAASGFTFSNAWMHWVRQAPGKGLEWVAQIKAKSNNYATYYAESVKGRFTISRDDSKNSLYLQMDSLKTEDTAVYYCRYVHYGAYYGVDAWGQGTTVTVSSASTKGPSVFPLAPSSKSTSGGTAALGCLVKDYFPEPVTVSWNSGALTSGVHTFPAVLQSSGLYSLSSVVTVPSSSLGTQTYICNVNHKPSNTKVDKKVEPKSCDKTHTCPPCPAPEAAGGPSVFLFPPKPKDTLMISRTPEVTCVVVDVSHEDPEVKFNWYVDGVEVHNAKTKPREEQYASTYRVVSVLTVLHQDWLNGKEYKCKVSNKALPAPIEKTISKAKGQPREPQVYTLPPSRCELTKNQVSLSCAVKGFYPSDIAVEWESNGQPENNYKTTPPVLDSDGSFFLVSKLTVDKSRWQQGNVFSCSVMHEALHNHYTQKSLSLSPDYKDDDDK
chain: EPKSSDKTHTCPPCPAPELLGGPSVFLFPPKPKDTLMISRTPEVTCVVVDVSHEDPEVKFNWYVDGVEVHNAKTKPREEQYNSTYRVVSVLTVLHQDWLNGKEYKCKVSNKALPAPIEKTISKAKGQPREPQVCTLPPSRDELTKNQVSLWCLVKGFYPSDIAVEWESNGQPENNYKTTPPVLDSDGSFFLYSKLTVDKSRWQQGNVFSCSVMHEALHNRYTQKSLSLSP
light: DIVMTQSPLSLPVTPGEPASISCRSSQSLVHSNRNTYLHWYQQKPGQAPRLLIYKVSNRFSGVPDRFSGSGSGTDFTLKISRVEAEDVGVYYCGQGTQVPYTFGQGTKLEIKRTVAAPSVFIFPPSDEQLKSGTASVVCLLNNFYPREAKVQWKVDNALQSGNSQESVTEQDSKDSTYSLSSTLTLSKADYEKHKVYACEVTHQGLSSPVTKSFNRGEC
notes: one-arm antibody
B2: CE115HA000 V95K one-arm antibody (antibody, human IgG1, kappa, L234A L235A, N297A, name in Kabat numbering)
heavy: B1 heavy with D86N, V101K
chain: B1 chain
light: B1 light
notes: one-arm antibody
B3: CE115HA000 S62E one-arm antibody (antibody, human IgG1, kappa, L234A L235A, N297A, name in Kabat numbering)
heavy: B1 heavy with S65E, D86N
chain: B1 chain
light: B1 light
notes: one-arm antibody
B4: CE115HA000 Y100K one-arm antibody (antibody, human IgG1, kappa, L234A L235A, N297A, name in Kabat numbering)
heavy: B1 heavy with D86N, Y106K
chain: B1 chain
light: B1 light
notes: one-arm antibody
B5: CE115HA000 Y100G one-arm antibody (antibody, human IgG1, kappa, L234A L235A, N297A, name in Kabat numbering)
heavy: B1 heavy with D86N, Y106G
chain: B1 chain
light: B1 light
notes: one-arm antibody
B6: CE115HA000 Y97P one-arm antibody (antibody, human IgG1, kappa, L234A L235A, N297A, name in Kabat numbering)
heavy: B1 heavy with D86N, Y103P
chain: B1 chain
light: B1 light
notes: one-arm antibody
B7: CE115HA000 Y100V one-arm antibody (antibody, human IgG1, kappa, L234A L235A, N297A, name in Kabat numbering)
heavy: B1 heavy with D86N, Y106V
chain: B1 chain
light: B1 light
notes: one-arm antibody
B8: CE115HA000 Y100P one-arm antibody (antibody, human IgG1, kappa, L234A L235A, N297A, name in Kabat numbering)
heavy: B1 heavy with D86N, Y106P
chain: B1 chain
light: B1 light
notes: one-arm antibody
B9: CE115HA000 Y100D one-arm antibody (antibody, human IgG1, kappa, L234A L235A, N297A, name in Kabat numbering)
heavy: B1 heavy with D86N, Y106D
chain: B1 chain
light: B1 light
notes: one-arm antibody
B10: CE115HA000 S62K one-arm antibody (antibody, human IgG1, kappa, L234A L235A, N297A, name in Kabat numbering)
heavy: B1 heavy with S65K, D86N
chain: B1 chain
light: B1 light
notes: one-arm antibody
B11: CE115HA000 V100cE one-arm antibody (antibody, human IgG1, kappa, L234A L235A, N297A, name in Kabat numbering)
heavy: B1 heavy with D86N, V109E
chain: B1 chain
light: B1 light
notes: one-arm antibody
B12: CE115HA000 Y100S one-arm antibody (antibody, human IgG1, kappa, L234A L235A, N297A, name in Kabat numbering)
heavy: B1 heavy with D86N, Y106S
chain: B1 chain
light: B1 light
notes: one-arm antibody
B13: CE115HA000 S62P one-arm antibody (antibody, human IgG1, kappa, L234A L235A, N297A, name in Kabat numbering)
heavy: B1 heavy with S65P, D86N
chain: B1 chain
light: B1 light
notes: one-arm antibody
B14: CE115HA000 S77T one-arm antibody (antibody, human IgG1, kappa, L234A L235A, N297A, name in Kabat numbering)
heavy: B1 heavy with S80T, D86N
chain: B1 chain
light: B1 light
notes: one-arm antibody
B15: CE115HA000 S62D one-arm antibody (antibody, human IgG1, kappa, L234A L235A, N297A, name in Kabat numbering)
heavy: B1 heavy with S65D, D86N
chain: B1 chain
light: B1 light
notes: one-arm antibody
B16: CE115HA000 V100cP one-arm antibody (antibody, human IgG1, kappa, L234A L235A, N297A, name in Kabat numbering)
heavy: B1 heavy with D86N, V109P
chain: B1 chain
light: B1 light
notes: one-arm antibody
B17: CE115HA000 Y100W one-arm antibody (antibody, human IgG1, kappa, L234A L235A, N297A, name in Kabat numbering)
heavy: B1 heavy with D86N, Y106W
chain: B1 chain
light: B1 light
notes: one-arm antibody
B18: CE115HA000 Y100L one-arm antibody (antibody, human IgG1, kappa, L234A L235A, N297A, name in Kabat numbering)
heavy: B1 heavy with D86N, Y106L
chain: B1 chain
light: B1 light
notes: one-arm antibody
B19: CE115HA000 Y97R one-arm antibody (antibody, human IgG1, kappa, L234A L235A, N297A, name in Kabat numbering)
heavy: B1 heavy with D86N, Y103R
chain: B1 chain
light: B1 light
notes: one-arm antibody
B20: CE115HA000 V95S one-arm antibody (antibody, human IgG1, kappa, L234A L235A, N297A, name in Kabat numbering)
heavy: B1 heavy with D86N, V101S
chain: B1 chain
light: B1 light
notes: one-arm antibody
B21: CE115HA000 Y100A one-arm antibody (antibody, human IgG1, kappa, L234A L235A, N297A, name in Kabat numbering)
heavy: B1 heavy with D86N, Y106A
chain: B1 chain
light: B1 light
notes: one-arm antibody
B22: CE115HA000 V95A one-arm antibody (antibody, human IgG1, kappa, L234A L235A, N297A, name in Kabat numbering)
heavy: B1 heavy with D86N, V101A
chain: B1 chain
light: B1 light
notes: one-arm antibody
B23: CE115HA000 V95D one-arm antibody (antibody, human IgG1, kappa, L234A L235A, N297A, name in Kabat numbering)
heavy: B1 heavy with D86N, V101D
chain: B1 chain
light: B1 light
notes: one-arm antibody
B24: CE115HA000 Y100Q one-arm antibody (antibody, human IgG1, kappa, L234A L235A, N297A, name in Kabat numbering)
heavy: B1 heavy with D86N, Y106Q
chain: B1 chain
light: B1 light
notes: one-arm antibody
B25: CE115HA000 V95G one-arm antibody (antibody, human IgG1, kappa, L234A L235A, N297A, name in Kabat numbering)
heavy: B1 heavy with D86N, V101G
chain: B1 chain
light: B1 light
notes: one-arm antibody
B26: CE115HA000 V95E one-arm antibody (antibody, human IgG1, kappa, L234A L235A, N297A, name in Kabat numbering)
heavy: B1 heavy with D86N, V101E
chain: B1 chain
light: B1 light
notes: one-arm antibody
B27: CE115HA000 S74A one-arm antibody (antibody, human IgG1, kappa, L234A L235A, N297A, name in Kabat numbering)
heavy: B1 heavy with S77A, D86N
chain: B1 chain
light: B1 light
notes: one-arm antibody
B28: CE115HA000 Y97S one-arm antibody (antibody, human IgG1, kappa, L234A L235A, N297A, name in Kabat numbering)
heavy: B1 heavy with D86N, Y103S
chain: B1 chain
light: B1 light
notes: one-arm antibody
B29: CE115HA000 Q105E one-arm antibody (antibody, human IgG1, kappa, L234A L235A, N297A, name in Kabat numbering)
heavy: B1 heavy with D86N, Q114E
chain: B1 chain
light: B1 light
notes: one-arm antibody
B30: CE115HA000 Y97D one-arm antibody (antibody, human IgG1, kappa, L234A L235A, N297A, name in Kabat numbering)
heavy: B1 heavy with D86N, Y103D
chain: B1 chain
light: B1 light
notes: one-arm antibody
B31: CE115HA000 V100cD one-arm antibody (antibody, human IgG1, kappa, L234A L235A, N297A, name in Kabat numbering)
heavy: B1 heavy with D86N, V109D
chain: B1 chain
light: B1 light
notes: one-arm antibody
B32: CE115HA000 S74P one-arm antibody (antibody, human IgG1, kappa, L234A L235A, N297A, name in Kabat numbering)
heavy: B1 heavy with S77P, D86N
chain: B1 chain
light: B1 light
notes: one-arm antibody

target: T1, CD3 epsilon homodimer protein (UniProt P07766 23-126); assay: SPR (Biacore T200), CD3 epsilon homodimer on CM4 chip, one-arm antibody as analyte; ratio to unaltered CE115HA000;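 further: surface plasmon resonance run at 25 °C with HBS-EP+ as running buffer, CD3 epsilon homodimer attached by amine coupling, antibody passed over as analyte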
T1 construct: Construct of the homodimer protein is not described; also called CD3 (CD3 epsilon)
T1 sequence (P07766 23-126): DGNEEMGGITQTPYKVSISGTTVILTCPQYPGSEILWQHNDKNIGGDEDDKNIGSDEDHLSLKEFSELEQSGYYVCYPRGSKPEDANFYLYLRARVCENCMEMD

Point of comparison: B6, “KD ratio (KD value of CE115HA000/KD value of the altered form)” value 12400. Against it:
- B1 — lower, 0.56
- B2 — lower, 1.15
- B3 — lower, 0.82
- B4 — lower, 0.93
- B5 — lower, 0.97
- B7 — lower, 0.92
- B8 — lower, 1.3
- B9 — lower, 0.63
- B10 — lower, 0.99
- B11 — lower, 1.31
- B12 — lower, 0.7
- B13 — lower, 0.77
- B14 — lower, 0.83
- B15 — lower, 0.87
- B16 — lower, 0.97
- B17 — lower, 0.96
- B18 — lower, 0.67
- B19 — higher, 23200
- B20 — lower, 4.61
- B21 — lower, 0.92
- B22 — lower, 3.15
- B23 — lower, 108
- B24 — lower, 0.77
- B25 — higher, 78300
- B26 — lower, 50.5
- B27 — lower, 0.77
- B28 — lower, 1180
- B29 — lower, 0.89
- B30 — lower, 64.7
- B31 — lower, 1.64
- B32 — lower, 0.7
